The target of this assay is FcRI on U937 cells (human) (UniProt P12314). In words: unlabeled protein competing with the same 125I-labeled protein for binding to IFN-γ-treated U937 cells.
Sequence of FcRI on U937 cells (human) (P12314 16-374): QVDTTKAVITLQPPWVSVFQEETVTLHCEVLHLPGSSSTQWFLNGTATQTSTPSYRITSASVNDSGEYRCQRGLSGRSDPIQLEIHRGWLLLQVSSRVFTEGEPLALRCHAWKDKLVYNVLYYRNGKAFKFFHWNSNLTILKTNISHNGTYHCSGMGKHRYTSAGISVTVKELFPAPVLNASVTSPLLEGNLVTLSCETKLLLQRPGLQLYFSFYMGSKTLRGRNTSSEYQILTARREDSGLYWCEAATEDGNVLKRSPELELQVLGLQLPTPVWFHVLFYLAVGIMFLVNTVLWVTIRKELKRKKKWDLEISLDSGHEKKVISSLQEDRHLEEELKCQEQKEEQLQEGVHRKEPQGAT

On to “hCTLA4-IgG1 (from UniProt P16410 37-161) (Fc fusion)”, for which the IC50 stood at 70 nM.

human IgG1 (antibody) gave an IC50 of 75 nM.

Usually IC50 stands for the concentration at which inhibition is half-maximal. A low value points to greater potency.

The record behind these values is US20050196402A1.
